Data taken from US20110091994A1, “Methods for Screening Compounds for Treating and/or Preventing an Hepatitis C Virus Infection” (priority 2008, published 2011).

B1: PABPN1 (protein, UniProt Q86U42 2-306, looked up)
Polyadenylate-binding protein …: AAAAAAAAAAGAAGGRGSGPGRRRHLVPGAGGEAGEGAPGGAGDYGNGLESEELEPEELLLEPEPEPEPEEEPPRPRAPPGAPGPGPGSGAPGSQEEEEEPGLVEGDPGDGAIEDPELEAIKARVREMEEEAEKLKELQNEVEKQMNMSPPPGNAGPVIMSIEEKMEADARSIYVGNVDYGATAEELEAHFHGCGSVNRVTILCDKFSGHPKGFAYIEFSDKESVRTSLALDESLFRGRQIKVIPKRTNRPGISTTDRGFPRARYRARTTNYNSSRSRFYSGFNSRPRGRVYRGRARATSWYSPY
B2: FAM65A (protein, UniProt Q6ZS17 1-1223, looked up)
Rho family-interacting cell …: MMSLSVRPQRRLLSARVNRSQSFAGVLGSHERGPSLSFRSFPVFSPPGPPRKPPALSRVSRMFSVAHPAAKVPQPERLDLVYTALKRGLTAYLEVHQQEQEKLQGQIRESKRNSRLGFLYDLDKQVKSIERFLRRLEFHASKIDELYEAYCVQRRLRDGAYNMVRAYTTGSPGSREARDSLAEATRGHREYTESMCLLESELEAQLGEFHLRMKGLAGFARLCVGDQYEICMKYGRQRWKLRGRIEGSGKQVWDSEETIFLPLLTEFLSIKVTELKGLANHVVVGSVSCETKDLFAALPQVVAVDINDLGTIKLSLEVTWSPFDKDDQPSAASSVNKASTVTKRFSTYSQSPPDTPSLREQAFYNMLRRQEELENGTAWSLSSESSDDSSSPQLSGTARHSPAPRPLVQQPEPLPIQVAFRRPETPSSGPLDEEGAVAPVLANGHAPYSRTLSHISEASVDAALAEASVEAVGPESLAWGPSPPTHPAPTHGEHPSPVPPALDPGHSATSSTLGTTGSVPTSTDPAPSAHLDSVHKSTDSGPSELPGPTHTTTGSTYSAITTTHSAPSPLTHTTTGSTHKPIISTLTTTGPTLNIIGPVQTTTSPTHTMPSPTHTTASPTHTSTSPTHTPTSPTHKTSMSPPTTTSPTPSGMGLVQTATSPTHPTTSPTHPTTSPILINVSPSTSLELATLSSPSKHSDPTLPGTDSLPCSPPVSNSYTQADPMAPRTPHPSPAHSSRKPLTSPAPDPSESTVQSLSPTPSPPTPAPQHSDLCLAMAVQTPVPTAAGGSGDRSLEEALGALMAALDDYRGQFPELQGLEQEVTRLESLLMQRQGLTRSRASSLSITVEHALESFSFLNEDEDEDNDVPGDRPPSSPEAGAEDSIDSPSARPLSTGCPALDAALVRHLYHCSRLLLKLGTFGPLRCQEAWALERLLREARVLEAVCEFSRRWEIPASSAQEVVQFSASRPGFLTFWDQCTERLSCFLCPVERVLLTFCNQYGARLSLRQPGLAEAVCVKFLEDALGQKLPRRPQPGPGEQLTVFQFWSFVETLDSPTMEAYVTETAEEVLLVRNLNSDDQAVVLKALRLAPEGRLRRDGLRALSSLLVHGNNKVMAAVSTQLRSLSLGPTFRERALLCFLDQLEDEDVQTRVAGCLALGCIKAPEGIEPLVYLCQTDTEAVREAARQSLQQCGEEGQSAHRRLEESLDALPRIFGPGSMASTAF
B3: PRRC1 (protein, UniProt Q96M27 1-445, looked up)
Protein PRRC1: MMEESGIETTPPGTPPPNPAGLAATAMSSTPVPLAATSSFSSPNVSSMESFPPLAYSTPQPPLPPVRPSAPLPFVPPPAVPSVPPLVTSMPPPVSPSTAAAFGNPPVSHFPPSTSAPNTLLPAPPSGPPISGFSVGSTYDITRGHAGRAPQTPLMPSFSAPSGTGLLPTPITQQASLTSLAQGTGTTSAITFPEEQEDPRITRGQDEASAGGIWGFIKGVAGNPMVKSVLDKTKHSVESMITTLDPGMAPYIKSGGELDIVVTSNKEVKVAAVRDAFQEVFGLAVVVGEAGQSNIAPQPVGYAAGLKGAQERIDSLRRTGVIHEKQTAVSVENFIAELLPDKWFDIGCLVVEDPVHGIHLETFTQATPVPLEFVQQAQSLTPQDYNLRWSGLLVTVGEVLEKSLLNVSRTDWHMAFTGMSRRQMIYSAARAIAGMYKQRLPPRTV
B4: TBXAS1 (protein, UniProt P24557 1-533, looked up)
Thromboxane-A synthase: MEALGFLKLEVNGPMVTVALSVALLALLKWYSTSAFSRLEKLGLRHPKPSPFIGNLTFFRQGFWESQMELRKLYGPLCGYYLGRRMFIVISEPDMIKQVLVENFSNFTNRMASGLEFKSVADSVLFLRDKRWEEVRGALMSAFSPEKLNEMVPLISQACDLLLAHLKRYAESGDAFDIQRCYCNYTTDVVASVAFGTPVDSWQAPEDPFVKHCKRFFEFCIPRPILVLLLSFPSIMVPLARILPNKNRDELNGFFNKLIRNVIALRDQQAAEERRRDFLQMVLDARHSASPMGVQDFDIVRDVFSSTGCKPNPSRQHQPSPMARPLTVDEIVGQAFIFLIAGYEIITNTLSFATYLLATNPDCQEKLLREVDVFKEKHMAPEFCSLEEGLPYLDMVIAETLRMYPPAFRFTREAAQDCEVLGQRIPAGAVLEMAVGALHHDPEHWPSPETFNPERFTAEARQQHRPFTYLPFGAGPRSCLGVRLGLLEVKLTLLHVLHKFRFQACPETQVPLQLESKSALGPKNGVYIKIVSR
B5: FBF1 (protein, UniProt Q8TES7 1-1133, looked up)
Fas-binding factor 1: MAPKTKKGCKVTLPEKPVKLASHTRDTTGVSQMFPSSKARTKSLLGDDVFSTMAGLEEADAEVSGISEADPQALLQAMKDLDGMDADILGLKKSNSAPSKKAAKDPGKGELPNHPKPAGGAIPTKKSLPSPSSSGHQNRRFSSEDLEDPLRGLLSYDEGGITKQPPVTQSKTASDKSPSTVRDQGPSIPLTPGDTPIRKKEELLFDDGDDIMATLGFGDSPKAEKRQIGDQEGPRPARSTLDELLGRGMATKLLARPGTGEHREFKLDKKYQRPQDSEDMWGDEDFTFGAYQPTVVSSEGRQSRRQSVSRFFADSGADPKGEPGSKQSPPMASSPIQPRKGGADWLGLKDEDLDLFPASPTREAHRESSVPVTPSVPPPASQHSTPAGLPPSRAKPPTEGAGSPAKASQASKLRASKEEKEDWLSHALSRKKSQGLAREQHAGTSEGLHLAGTAGHPPSGSQPLTSTQGLEHAAAGGSSGTTARERPCVRPGVSGSPVTQNHAASALPTGSPKRGTAPGDLSATEPATCFPSTQKPTEPSVPVQPLLPESLARSLLPSTEYQKQLLAAQVQLQCSPAELQAELLHSQARLAELEAQVRKLELERAQHELLLGSLQQQHQADLELIESAHRSRIKVLETSYQQREERLRRENEELSARYLSQCQEAEQARAELTAQHQRRLAAIAQEKDQEMERLRELQRASILDMRRDHEEQLQRLKLLKDREVDAATSATSHTRSLNSIIHQMEKFSSSLHELSSRVEASHLTTSQERELGIRQRDEQLRALQERLGQQQRDMEEERSRQQEVIGKMEARLNEQSRLLEQERWRVTAEQSKAESMQRALEEQRKVTAQQMAMERAELERAKSALLEEQKSVMLKCGEERRRLAAEWAEFSAQQKLSKERAEREAERALQVDTQREGTLISLAKQAELKIRASELRAEEKQLAAERAALEQERQELRLEKERINATALRVKLRAEEVESMSKVASEKYEEGERALREAQQVQAEQQARLQAVQQQQERLRKQEQHMHQEHLSLAQQRLQLDRARQDLPSSLVGLFPRAQGPAASSQSALMPPAPTTRWCSQPPTGLDPSPLHLHARLALLRHMAEQDRDFLENEQFFLETLKKGSYNLTSHSA
B6: SYNPO2 (protein, UniProt Q9UMS6 1-1093, looked up)
Synaptopodin-2: MGTGDFICISMTGGAPWGFRLQGGKEQKQPLQVAKIRNQSKASGSGLCEGDEVVSINGNPCADLTYPEVIKLMESITDSLQMLIKRPSSGISEALISENENKNLEHLTHGGYVESTTLQIRPATKTQCTEFFLAPVKTEVPLAENQRSGPDCAGSLKEETGPSYQRAPQMPDSQRGRVAEELILREKVEAVQPGPVVELQLSLSQERHKGASGPLVALPGAEKSKSPDPDPNLSHDRIVHINSIPTNEKADPFLRSSKIIQISSGRELRVIQESEAGDAGLPRVEVILDCSDRQKTEGCRLQAGKECVDSPVEGGQSEAPPSLVSFAVSSEGTEQGEDPRSEKDHSRPHKHRARHARLRRSESLSEKQVKEAKSKCKSIALLLTDAPNPNSKGVLMFKKRRRRARKYTLVSYGTGELEREADEEEEGDKEDTCEVAFLGASESEVDEELLSDVDDNTQVVNFDWDSGLVDIEKKLNRGDKMEMLPDTTGKGALMFAKRRERMDQITAQKEEDKVGGTPSREQDAAQTDGLRTTTSYQRKEEESVRTQSSVSKSYIEVSHGLGHVPQQNGFSGTSETANIQRMVPMNRTAKPFPGSVNQPATPFSPTRNMTSPIADFPAPPPYSAVTPPPDAFSRGVSSPIAGPAQPPPWPQPAPWSQPAFYDSSERIASRDERISVPAKRTGILQEAKRRSTTKPMFTFKEPKVSPNPELLSLLQNSEGKRGTGAGGDSGPEEDYLSLGAEACNFMQSSSAKQKTPPPVAPKPAVKSSSSQPVTPVSPVWSPGVAPTQPPAFPTSNPSKGTVVSSIKIAQPSYPPARPASTLNVAGPFKGPQAAVASQNYTPKPTVSTPTVNAVQPGAVGPSNELPGMSGRGAQLFAKRQSRMEKYVVDSDTVQAHAARAQSPTPSLPASWKYSSNVRAPPPVAYNPIHSPSYPLAALKSQPSAAQPSKMGKKKGKKPLNALDVMKHQPYQLNASLFTFQPPDAKDGLPQKSSVKVNSALAMKQALPPRPVNAASPTNVQASSVYSVPAYTSPPSFFAEASSPVSASPVPVGIPTSPKQESASSSYFVAPRPKFSAKKSGVTIQVWKPSVVEE
B7: EEF1A1 (protein, UniProt P68104 2-462, looked up)
Elongation factor 1-alpha 1: GKEKTHINIVVIGHVDSGKSTTTGHLIYKCGGIDKRTIEKFEKEAAEMGKGSFKYAWVLDKLKAERERGITIDISLWKFETSKYYVTIIDAPGHRDFIKNMITGTSQADCAVLIVAAGVGEFEAGISKNGQTREHALLAYTLGVKQLIVGVNKMDSTEPPYSQKRYEEIVKEVSTYIKKIGYNPDTVAFVPISGWNGDNMLEPSANMPWFKGWKVTRKDGNASGTTLLEALDCILPPTRPTDKPLRLPLQDVYKIGGIGTVPVGRVETGVLKPGMVVTFAPVNVTTEVKSVEMHHEALSEALPGDNVGFNVKNVSVKDVRRGNVAGDSKNDPPMEAAGFTAQVIILNHPGQISAGYAPVLDCHTAHIACKFAELKEKIDRRSGKKLEDGPKFLKSGDAAIVDMVPGKPMCVESFSDYPPLGRFAVRDMRQTVAVGVIKAVDKKAAGAGKVTKSAQKAQKAK
B8: NUCB1 (protein, UniProt Q02818 27-461, looked up)
Nucleobindin-1: VPLERGAPNKEETPATESPDTGLYYHRYLQEVIDVLETDGHFREKLQAANAEDIKSGKLSRELDFVSHHVRTKLDELKRQEVSRLRMLLKAKMDAEQDPNVQVDHLNLLKQFEHLDPQNQHTFEARDLELLIQTATRDLAQYDAAHHEEFKRYEMLKEHERRRYLESLGEEQRKEAERKLEEQQRRHREHPKVNVPGSQAQLKEVWEELDGLDPNRFNPKTFFILHDINSDGVLDEQELEALFTKELEKVYDPKNEEDDMREMEEERLRMREHVMKNVDTNQDRLVTLEEFLASTQRKEFGDTGEGWETVEMHPAYTEEELRRFEEELAAREAELNAKAQRLSQETEALGRSQGRLEAQKRELQQAVLHMEQRKQQQQQQQGHKAPAAHPEGQLKFHPDTDDVPVPAPAGDQKEVDTSEKKLLERLPEVEVPQHL

Target: T1, HCV ORFs (Gal4-DB fusions) (Hepatitis C virus genotype 1b, UniProt Q9WMX2)
T1 construct: expressed in transfected cells; host or cells: Saccharomyces cerevisiae MAV203 (IMAP1) / AH109 (IMAP2)
Type: binding, HCV genotype 1b, isolate con1
Details: HCV protein CORE as bait; human protein as prey
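Note: yeast two-hybrid screens using HCV genotype 1b proteins fused to Gal4-DB as baits against prey cDNA libraries from human spleen and foetal brain, IMAP1 via transformation and IMAP2 via mating.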

| Molecule | IMAP Y2H IMAP2 (number of IST) |
| --- | --- |
| B1 | 1 |

Same assay, conditions: HCV protein NS3 as bait; human protein as prey

| Molecule | IMAP Y2H IMAP2 (number of IST) |
| --- | --- |
| B2 | 1 |
| B3 | 1 |
| B4 | 1 |
| B5 | 3 |
| B6 | 1 |
| B7 | 1 |

Same assay, conditions: HCV protein NS5A as bait; human protein as prey

| Molecule | IMAP Y2H IMAP2 (number of IST) |
| --- | --- |
| B8 | 2 |

System: HCV ORFs (Gal4-DB fusions)
Type: binding, HCV genotype 1b, isolate con1
Details: human protein listed by gene symbol; the value names the HCV protein it interacts with

| Molecule | Interaction with viral protein |
| --- | --- |
| B2 | NS3 |
| B3 | NS3 |
| B4 | NS3 |
| B5 | NS3 |
| B1 | CORE |
| B8 | NS3 and NS5A |
| B6 | NS3 |
| B7 | NS3 |
